Experimental data reported in article PMC3383732, “Impact of Large Aggregated Uricases and PEG Diol on Accelerated Blood Clearance of PEGylated Canine Uricase” (PLoS ONE, 2012).
Several values for one entry are separate records, joined by “and”; a condition that tells them apart may be missing. Equal values may be shown once.

Target: the molecule itself
Assay: SEC; SE-HPLC on Superdex 200 10/300 GL, 0.1 M Na2CO3 pH 10.3, 0.4 ml/min, detection at 280 nm; purified rCU after xanthine affinity chromatography and Source 15Q fractions

B1: recombinant canine uricase (enzyme, UniProt Q5FZI9 1-304, looked up)
chain: MAHYHNDYKKNDEVEFVRTGYGKDMVKVLHIQRDGKYHSIKEVATSVQLTLSSKKDYVYGDNSDIIPTDTIKNTVHVLAKFKGIKSIETFAMNICEHFLSSFNHVIRAQVYVEEVPWKRFEKNGVKHVHAFIHNPTGTHFCEVEQMRSGPPVIHSGIKDLKVLKTTQSGFEGFIKDQFTTLPEVKDRCFATKVYCKWRYHQGRDVDFEATWDTVRDIVLEKFAGPYDKGEYSPSVQKTLYDIQVHSLSRVPEMEDMEISLPNIHYFNIDMSKMGLINKEEVLLPLDNPYGRITGTAKRKLASKL
notes: Active form is a homo-tetramer; octamers and larger aggregates of the same chain were also seen and separated on Source 15Q; No tag is mentioned; Unmodified (not PEGylated) protein in the SE-HPLC analysis; also called rCU; wDU
stoichiometry N: 4 and 8
